Assay results taken from article PMC11347149.

Columns and labels:
[1] = target: T1, His6C-CoxC (LytTR DNA-binding domain) (Afipia carboxidovorans OM5) (UniProt Q9KX27); test: EMSA; conditions: EMSA: 20 mM Tris-HCl pH 7.5, 50 mM KCl, 2 mM beta-mercaptoethanol, 10% glycerol, 250 ug/ml BSA, 50 ug/ml salmon sperm DNA, 1 mM DTT, 1 mM dithionite, 2 ng …
T1 sequence: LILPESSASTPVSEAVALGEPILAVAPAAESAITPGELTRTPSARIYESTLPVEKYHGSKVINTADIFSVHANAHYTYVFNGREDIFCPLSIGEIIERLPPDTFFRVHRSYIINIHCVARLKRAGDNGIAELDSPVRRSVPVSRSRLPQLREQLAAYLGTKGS

[2] = system: His6C-CoxC (LytTR DNA-binding domain) (Afipia carboxidovorans OM5); test: EMSA; conditions: EMSA: 20 mM Tris-HCl pH 7.5, 50 mM KCl, 2 mM beta-mercaptoethanol, 10% glycerol, 250 ug/ml BSA, 50 ug/ml salmon sperm DNA, 1 mM DTT, 1 mM dithionite, 2 ng …

Row | Substance | Kd [1] [µM] | binding [1] | Kd [2] [µM]
1 | AATTCCAGTTCATGCGTATGTTACCGCCGTTGGTGGAATTTGGAAGTCGTTTGGGCAAAAGCCTTTGATGCTGCTTTGCGGCAACTTCTATCGTGCCCCACGAACGTCGCATCATAAGAAATGTGACGCCCGGGGGGGACAACGCAAATGGGTTGCGAAAATATGCAGGCGCGGCAAGCACCGTGTCGCCAAGCTAGGCATTTGGCTCAAACTGTCCCCTCGAAGCTCTCTTCAACTGCTGCAAAGCATCGACCGCATTTTCGCGGACGATATTGGGATCCCG (double strand) [PcoxB] | 0.025 | binds | 
2 | PcoxB |  |  | 0.025
